B1: POU domain, class 3, transcription factor 2, residues 262 to 338; numbered along this chain, P20265 (parent)
chain: EDTPTSDDLEQFAKQFKQRRIKLGFTQADVGLALGTLYGNVFSQTTICRFEALQLSFKNMCKLKPLLNKWLEEADSS

± gives the uncertainty stated by the source.

This data set covers variants of B1. Briefly: abundance fitness (aPCA) (normalised: wild type 0, dead -1); higher = more abundant; growth selection in yeast, the domain comes from the species named. The conditions noted are these: Homo sapiens.
EDTPTSDDLEQTAKQFKQRRIKLGFTQADVGLALGTLYGNVFSQTTICRFEALQLSFKNMCKLKPLLNKWLEEADSS [F12T]: the abundance fitness was -0.359 ± 0.15. In the case of EDTPTSDDLEQFAKQFSQRRIKLGFTQADVGLALGTLYGNVFSQTTICRFEALQLSFKNMCKLKPLLNKWLEEADSS [K17S], the abundance fitness was -0.279 ± 0.035.

With EDTPTSDDLEQFAKQFLQRRIKLGFTQADVGLALGTLYGNVFSQTTICRFEALQLSFKNMCKLKPLLNKWLEEADSS [K17L], the abundance fitness was -0.597 ± 0.044. Take EDTPTSDDLEQFAKQFKQRRIKLGFTQADVGLALGTLYGNVFSQTTICRFEALQLSFKNMYKLKPLLNKWLEEADSS [C61Y]: the abundance fitness is -0.252 ± 0.077.

Turning to EDTPTSDDLEQFAKQFKQRRIKLGFTQADVGLALGTLYGNVFSQTTICRFEALQLSFKNYCKLKPLLNKWLEEADSS [M60Y], the abundance fitness was -0.624 ± 0.15. For the variant EDTPTSDDLEQFAKQFKQRRIKLGFTQADVGLALGTLYGNVFSQTTICRFEALQLSFKNACKLKPLLNKWLEEADSS [M60A], the abundance fitness is -0.168 ± 0.035.

With EDTPTSDDLEQFAKQFKQRRIKLGFTQADVGLALGTLYGNVFSQTTICRFEALQLSFKNTCKLKPLLNKWLEEADSS [M60T], the abundance fitness was -0.337 ± 0.054. For EDTPTSDDLEQFAKQFKQRRIELGFTQADVGLALGTLYGNVFSQTTICRFEALQLSFKNMCKLKPLLNKWLEEADSS [K22E] the value was 0.057 ± 0.035.

Take EDTPTSDDLEQFAKQFKQRRIKLGFTQADVGLALGTLYGNVFSQTTICRFEALQLSFKNMCKLKPLLNKWSEEADSS [L71S]: the abundance fitness is -0.207 ± 0.075. Consider EDTPTSDDLEQFAKQFKQRRIKLGFTQADVGLALGTLYGNVFSQTTICRFEALQHSFKNMCKLKPLLNKWLEEADSS [L55H], for which the abundance fitness was -0.266 ± 0.08. As for EDTPTSDDLEQFAKQFKQRRIKLGFTQADVGLALGTLYGNVFSQTTICRFEALQDSFKNMCKLKPLLNKWLEEADSS [L55D], the abundance fitness is -0.369 ± 0.061. Consider EDTPTSDDLEQFAKQFKQRRIKLGFTQADVGLALGTLYGNVFSQTTICRFEALQTSFKNMCKLKPLLNKWLEEADSS [L55T], for which the abundance fitness is -0.583 ± 0.069. For EDTPTSDDLEQFAKQFKQRRIKLGFTQADVGLALGTLYGNVFSQTTICRFEALNLSFKNMCKLKPLLNKWLEEADSS [Q54N], the abundance fitness was -0.113 ± 0.081. Next, EDTPTSDDLEQFAKQFKQRRIKLGFTQADVGLALGTLYGNVFSQTTICRFEALWLSFKNMCKLKPLLNKWLEEADSS [Q54W]: -0.436 ± 0.057. EDTPTSDDLEQFAKQFKQRRIKLGFTQADVGLALGTLYGNVFSQTTICRFEALMLSFKNMCKLKPLLNKWLEEADSS [Q54M]: the abundance fitness was -0.294 ± 0.074.

As for EDTPTSDDLEQFAKQFKQRRIKLGFTQADVGLALGTLYGNVFSQTTICRFEALRLSFKNMCKLKPLLNKWLEEADSS [Q54R], the abundance fitness was -0.156 ± 0.035. In the case of EDTPTSDDLEQFAKQFKQRRIKLGFTQADVGLALGTLYGNVFSQTTICRFEALQLSFKNMCKLKPLLNKLLEEADSS [W70L], the abundance fitness was -0.502 ± 0.043. Take EDTPTSDDLEQFAKQFKQRRIKLGFTQADVGLALGTLYGNVFSQTTICRFEALQLSFKNMCKLKPLLNSWLEEADSS [K69S]: the abundance fitness was -0.146 ± 0.1.

With EDTPTSDDLEQFAKQFKQRRIKLGFTQADVGLALGTLYGNVFSQTTICEFEALQLSFKNMCKLKPLLNKWLEEADSS [R49E], the abundance fitness amounted to 0.026 ± 0.032. With EDTPTKDDLEQFAKQFKQRRIKLGFTQADVGLALGTLYGNVFSQTTICRFEALQLSFKNMCKLKPLLNKWLEEADSS [S6K], the abundance fitness was 0.091 ± 0.033. For EDTPTSDDLEQFAKQFKQRRIKLGFTQADVGLALGTLYGNVFSQTTICRFEALQLSFKNMCKLKPLLNKWLEEADCS [S76C] the value was -0.075 ± 0.043; for EDTPTSDDLEQFAKQFKQRRIKLGFTQADVGLALGTLYGNVFSQTTICRFEATQLSFKNMCKLKPLLNKWLEEADSS [L53T], -0.138 ± 0.046. Regarding EDTPTSDDLEQFAKQFKQRRIKLGFTQADVGLALGTLYGNVFSQTTICRFEALQLSFKNMCKLKPLLNKWLNEADSS [E72N], the abundance fitness is -0.094 ± 0.063.

Consider EDTPTSDDGEQFAKQFKQRRIKLGFTQADVGLALGTLYGNVFSQTTICRFEALQLSFKNMCKLKPLLNKWLEEADSS [L9G], for which the abundance fitness was -0.605 ± 0.05. Turning to EDTPTSDDDEQFAKQFKQRRIKLGFTQADVGLALGTLYGNVFSQTTICRFEALQLSFKNMCKLKPLLNKWLEEADSS [L9D], the abundance fitness is -0.497 ± 0.078.

For EDTPTSDDEEQFAKQFKQRRIKLGFTQADVGLALGTLYGNVFSQTTICRFEALQLSFKNMCKLKPLLNKWLEEADSS [L9E], the abundance fitness was -0.797 ± 0.093. Regarding EDTPTSDDVEQFAKQFKQRRIKLGFTQADVGLALGTLYGNVFSQTTICRFEALQLSFKNMCKLKPLLNKWLEEADSS [L9V], the abundance fitness was -0.107 ± 0.03. On to EDTPTSDDQEQFAKQFKQRRIKLGFTQADVGLALGTLYGNVFSQTTICRFEALQLSFKNMCKLKPLLNKWLEEADSS [L9Q], for which the abundance fitness is -0.53 ± 0.061. Next, EQTPTSDDLEQFAKQFKQRRIKLGFTQADVGLALGTLYGNVFSQTTICRFEALQLSFKNMCKLKPLLNKWLEEADSS [D2Q]: 0.054 ± 0.039; EKTPTSDDLEQFAKQFKQRRIKLGFTQADVGLALGTLYGNVFSQTTICRFEALQLSFKNMCKLKPLLNKWLEEADSS [D2K]: -0.031 ± 0.051; EDTPTSDDLEQFAKQFKQRRIKLGDTQADVGLALGTLYGNVFSQTTICRFEALQLSFKNMCKLKPLLNKWLEEADSS [F25D]: -0.749 ± 0.11. As to EDTPTSDDLEQFAKQFKQRRIKLGYTQADVGLALGTLYGNVFSQTTICRFEALQLSFKNMCKLKPLLNKWLEEADSS [F25Y], the abundance fitness worked out at 0.041 ± 0.057. For the variant EDEPTSDDLEQFAKQFKQRRIKLGFTQADVGLALGTLYGNVFSQTTICRFEALQLSFKNMCKLKPLLNKWLEEADSS [T3E], the abundance fitness was -0.218 ± 0.043. In the case of EDYPTSDDLEQFAKQFKQRRIKLGFTQADVGLALGTLYGNVFSQTTICRFEALQLSFKNMCKLKPLLNKWLEEADSS [T3Y], the abundance fitness is -0.029 ± 0.063. With EDTPTSDDLEAFAKQFKQRRIKLGFTQADVGLALGTLYGNVFSQTTICRFEALQLSFKNMCKLKPLLNKWLEEADSS [Q11A], the abundance fitness stood at 0.016 ± 0.038.

The record behind these values is the Human Domainome abundance scans (Beltran et al. 2025).
